One may read the Kd as the constant that tells how readily two partners part at equilibrium. Lower therefore signals tighter binding. Usually IC50 stands for the concentration that inhibits the measured activity by half.

The target of assay [1] is T1, murine IL-11 (mouse, UniProt P47873 22-199).
T1 construct: Invigate, e.g. lot #C210819-09; biotinylated where coated in the ELISA; also called mIL-11; mIL11
T1 sequence: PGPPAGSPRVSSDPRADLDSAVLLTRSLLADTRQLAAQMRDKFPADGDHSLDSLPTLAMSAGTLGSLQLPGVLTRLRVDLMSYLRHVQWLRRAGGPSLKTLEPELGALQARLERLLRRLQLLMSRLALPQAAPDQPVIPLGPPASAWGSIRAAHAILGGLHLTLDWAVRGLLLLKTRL
The assay can be described thus: SPR 37 C, antibody captured, IL-11 as analyte.

Assay [2] has as its target T2, cynomolgus IL-11 (cynomolgus, UniProt P20808 22-199).
T2 construct: Invigate, lot #C290621-19; also called cIL11; cynoL-11
T2 sequence: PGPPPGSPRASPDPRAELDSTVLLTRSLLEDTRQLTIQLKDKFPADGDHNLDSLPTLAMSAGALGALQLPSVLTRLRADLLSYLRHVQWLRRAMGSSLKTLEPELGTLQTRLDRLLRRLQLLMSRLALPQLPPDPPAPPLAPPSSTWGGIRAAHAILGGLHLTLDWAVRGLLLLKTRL
The assay is described as follows: SPR 37 C, antibody captured, IL-11 as analyte.

The target of assay [3] is T3, rat IL-11 (rat, UniProt Q99MF5 22-199).
T3 construct: Invigate, e.g. lot #C301019-19; also called rIL11
T3 sequence: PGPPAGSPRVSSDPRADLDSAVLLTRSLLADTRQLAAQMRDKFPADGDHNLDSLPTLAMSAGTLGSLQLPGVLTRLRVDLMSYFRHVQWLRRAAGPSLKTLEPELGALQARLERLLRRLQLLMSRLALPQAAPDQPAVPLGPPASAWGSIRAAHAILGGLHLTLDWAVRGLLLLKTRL
The assay is described as follows: SPR 37 C, antibody captured, IL-11 as analyte.

For assay [4], the target named is T4, human IL-11 (human, UniProt P20809 22-199).
T4 construct: Invigate recombinant protein; biotinylated when immobilized in the Di-complex ELISA; also called hIL11; hIL-11
T4 sequence: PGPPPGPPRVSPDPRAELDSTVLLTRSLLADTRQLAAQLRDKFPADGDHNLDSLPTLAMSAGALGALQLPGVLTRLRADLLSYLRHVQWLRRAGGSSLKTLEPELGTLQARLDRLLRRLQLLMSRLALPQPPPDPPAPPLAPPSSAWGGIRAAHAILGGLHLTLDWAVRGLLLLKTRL
The assay can be described thus: Tri-complex ELISA, hIL-11 + mIL-11Ra-Fc + hgp130-Fc, inhibition of complex formation; Tri-complex ELISA (IL-11/IL-11Ra/gp130 formation), efficacy only 25%. How it is done: In a first step, 25 μl of goat anti human IgG (Sigma, #12136), diluted 1:1000 in coating buffer (Candor, #121125) was coated on the plate at 4° C. overnight. Next day, the plate was washed one time with 50 μl PBST and then blocked with 50 μl SmartBlock (Candor, #113125) for one hour at room temperature (RT). […] After three additional washes of the coated and blocked microtiter plate with PBS-T, 25 μl of each mixture were added and the assay plate was incubated for one hour at room temperature. After three additional washes, anti-mouse-gp130 biotinylated antibody (R&D, #BAF468) or anti-human gp130 biotinylated antibody (R&D, #BAF228), both 1:1000 in 10% SmartBlock PBS-T, was added and incubated for 1 hour at RT. […] Then, the fluorescence was measured with a plate reader at 535/595 nm. […] Efficacy was calculated as [(signal measured at lowest antibody concentration−signal measured at the highest antibody concentration)×100] divided by (signal measured at lowest antibody concentration−signal measured in the absence of antibody at an IL11 concentration of 8.2E-11 [M]).
IgG converted antibodies were subjected to the experimental assay procedure described in Example 19 and IC50 [M], respectively efficacy (%) were calculated accordingly.

B1: TPP-18068 (antibody, mouse IgG1)
heavy: EVQLLESGGGLVQPGGSLRLSCAASGFTFSSYGMHWVRQAPGKGLEWVSVISYDGSYKYYADSVKGRFTISRDNSKNTLYLQMNSLRAEDTAVYYCAAGVPDYWGQGTLVTVSSAKTTPPSVYPLAPGSAAQTNSMVTLGCLVKGYFPEPVTVTWNSGSLSSGVHTFPAVLQSDLYTLSSSVTVPSSTWPSETVTCNVAHPASSTKVDKKIVPRDCGCKPCICTVPEVSSVFIFPPKPKDVLTITLTPKVTCVVVDISKDDPEVQFSWFVDDVEVHTAQTQPREEQFNSTFRSVSELPIMHQDWLNGKEFKCRVNSAAFPAPIEKTISKTKGRPKAPQVYTIPPPKEQMAKDKVSLTCMITDFFPEDITVEWQWNGQPAENYKNTQPIMDTDGSYFVYSKLNVQKSNWEAGNTFTCSVLHEGLHNHHTEKSLSHSPGK
light: QSVLTQPPSASGTPGQRVTISCTGSSSNIGAGYDVHWYQQLPGTAPKLLIYSNNERPSGVPDRFSGSKSGTSASLAISGLRSEDEADYYCAAWDDSLNGPVFGGGTKLTVLGQPKSSPSVTLFPPSSEELETNKATLVCTITDFYPGVVTVDWKVDGTPVTQGMETTQPSKQSNNKYMASSYLTLTARAWERHSSYSCQVTHEGHTVEKSLSRADCS
notes: mIgG1, Lambda
Regarding B1, the Kd in assay [1] was 0.41 nM; in assay [2], 5 nM; in assay [3], 0.58 nM.

B2: TPP-18087 (antibody, mouse IgG1, V domains shown)
VH: EVQLLESGGGLVQPGGSLRLSCAASGFTFSHYDMNWLRQAPGKGLEWVGVISYDGSNKFYADFVKGRFTISRDNSKNTLYLQMNSLRAEDTAVYYCARTPGSHFDYWGQGTLVTVSS
VL: QSVLTQPPSASGTPGQRVTISCSGSSSNIGNNAVNWYQQLPGTAPKLLIYYDDLLPSGVPDRFSGSKSGTSASLAISGLRSEDEADYYCSAWDDSLNGVVFGGGTKLTVLG
notes: mIgG1, Lambda
In the case of B2, the IC50 in assay [4] turned out to be 1.5 nM.
